We go through one substance from publication PMC7105497.

The assay concerns the target human EWI-2 wild type with FLAG-tag (FSEC assay) (human) (UniProt Q969P0). Kind of assay: SEC; fluorescence-detection size-exclusion chromatography (FSEC): GFP-tagged CD9 and FLAG-tagged EWI-2 co-expressed in HEK293T cells, solubilised in 1% digitonin, supernatant run on Superose 6 Increase in 10 mM HEPES pH 7.0, 150 mM NaCl, 0.1% digitonin; GFP fluorescence monitored. (Size exclusion chromatography separates by hydrodynamic size, large species first.)
Sequence of UniProt Q969P0 (Q969P0 28-613): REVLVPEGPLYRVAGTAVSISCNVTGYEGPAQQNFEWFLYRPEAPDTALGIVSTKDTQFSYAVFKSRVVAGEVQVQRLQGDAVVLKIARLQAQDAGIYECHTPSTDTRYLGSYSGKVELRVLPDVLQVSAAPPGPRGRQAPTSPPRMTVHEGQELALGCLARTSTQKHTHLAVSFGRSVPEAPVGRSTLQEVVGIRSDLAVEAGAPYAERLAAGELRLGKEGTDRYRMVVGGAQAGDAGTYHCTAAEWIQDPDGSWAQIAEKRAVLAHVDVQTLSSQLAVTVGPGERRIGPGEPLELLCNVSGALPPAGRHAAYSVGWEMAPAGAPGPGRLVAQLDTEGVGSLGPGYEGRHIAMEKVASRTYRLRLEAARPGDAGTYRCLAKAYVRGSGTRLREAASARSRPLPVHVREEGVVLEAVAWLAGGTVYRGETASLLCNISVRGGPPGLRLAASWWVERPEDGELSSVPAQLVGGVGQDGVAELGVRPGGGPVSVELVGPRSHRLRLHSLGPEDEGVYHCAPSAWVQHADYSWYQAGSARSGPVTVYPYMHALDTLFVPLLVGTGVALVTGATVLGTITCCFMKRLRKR

Substance “CD9-CD53LEL (CD9 with its LEL region exchanged with that of CD53)” showed a stoichiometry N (EWI-2 per CD9) of 2.
